Biological target: T1, GST-tagged PTP1B, full length (UniProt P18031 1-435)
T1 construct: protein tyrosine phosphatase PTP1B (PTPN1), full-length cDNA subcloned into pGEX-4T1; The cDNA probably comes from pJ3H PTP1B (Addgene 8601); also called GST-PTP1B; source: E. coli, purified (glutathione resin)
T1 sequence (looked up): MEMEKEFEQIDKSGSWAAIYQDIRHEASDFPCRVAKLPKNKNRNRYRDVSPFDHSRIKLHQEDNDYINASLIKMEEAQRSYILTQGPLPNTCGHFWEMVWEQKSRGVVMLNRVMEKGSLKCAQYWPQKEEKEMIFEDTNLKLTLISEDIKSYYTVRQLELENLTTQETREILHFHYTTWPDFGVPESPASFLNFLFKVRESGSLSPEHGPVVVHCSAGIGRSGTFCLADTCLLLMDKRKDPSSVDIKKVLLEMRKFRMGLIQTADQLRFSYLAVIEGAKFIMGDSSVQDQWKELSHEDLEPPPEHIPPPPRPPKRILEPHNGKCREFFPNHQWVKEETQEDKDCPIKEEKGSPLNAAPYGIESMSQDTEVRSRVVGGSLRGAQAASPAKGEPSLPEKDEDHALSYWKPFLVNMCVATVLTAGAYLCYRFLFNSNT
Experiment: pull-down; GST pull-down with purified proteins from E. coli: His-PDL1-CT / MBP-PDL1-CT (0.5 μg) and 0.5 μg GST or GST-fusion proteins
Settings: both partners purified

B1: MBP-tagged PD-L1 cytoplasmic domain (domain or fragment, human, UniProt Q9NZQ7 262-290, looked up)
chain: RKGRMMDVKKCGIQDTNSKKQSDTHLEET
notes: PD-L1 cytoplasmic domain, human, amino acids 262-290, subcloned into pET-His6 (Addgene plasmid 29656; named in the acknowledgements as PET His6 MBP TEV LIC cloning vector); The results and legend call it MBP-PDL1-CT, the methods of the pull-down His-PDL1-CT; also called MBP-PDL1-CT; His-PDL1-CT; source: E. coli, purified (His resin)
binding result: binds

— paper PMC8119208 (JCI Insight, 2021)
